Measured values as given in patent US20140213513A1 (Sanofi, priority 2012, published 2014).
*1 amine or outer side, *2 acyl side, *3 side chain or, on linkers, in order; H or OH if unused. Where no end group is shown, it is not given here. Side-chain parts run from the residue outwards. [ ]: non-standard residue; d: D form. The star is where a group is joined. γGlu = O=C(O)[C@H](CCC(=O)[*:2])N[*:1]; Stearoyl = CCCCCCCCCCCCCCCCCC(=O)*; Palmitoyl = CCCCCCCCCCCCCCCC(=O)*; Aib = CC(C)(N)C(=O)O

T1: human GIP receptor (human, UniProt P48546 22-466)
T1 sequence (looked up): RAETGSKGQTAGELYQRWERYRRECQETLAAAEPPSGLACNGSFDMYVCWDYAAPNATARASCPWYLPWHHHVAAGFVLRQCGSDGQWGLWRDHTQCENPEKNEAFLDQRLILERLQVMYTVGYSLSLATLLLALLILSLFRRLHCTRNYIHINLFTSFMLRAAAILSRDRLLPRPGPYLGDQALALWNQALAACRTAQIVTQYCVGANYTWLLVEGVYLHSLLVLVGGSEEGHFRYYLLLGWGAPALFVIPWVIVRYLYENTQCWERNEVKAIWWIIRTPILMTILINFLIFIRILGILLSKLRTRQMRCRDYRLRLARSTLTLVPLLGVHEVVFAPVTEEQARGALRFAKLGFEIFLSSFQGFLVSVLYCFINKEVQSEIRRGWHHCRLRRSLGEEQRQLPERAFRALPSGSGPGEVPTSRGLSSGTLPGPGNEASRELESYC


What was measured:
Assay in all cases: cell-based or functional assay
human GLP-1 receptor = human GLP-1 receptor (human, UniProt P43220 24-463)
human GIP receptor = target: T1, human GIP receptor
human glucagon receptor = human glucagon receptor (human, UniProt P47871 26-477)
Chain of human glucagon receptor (P47871 26-477): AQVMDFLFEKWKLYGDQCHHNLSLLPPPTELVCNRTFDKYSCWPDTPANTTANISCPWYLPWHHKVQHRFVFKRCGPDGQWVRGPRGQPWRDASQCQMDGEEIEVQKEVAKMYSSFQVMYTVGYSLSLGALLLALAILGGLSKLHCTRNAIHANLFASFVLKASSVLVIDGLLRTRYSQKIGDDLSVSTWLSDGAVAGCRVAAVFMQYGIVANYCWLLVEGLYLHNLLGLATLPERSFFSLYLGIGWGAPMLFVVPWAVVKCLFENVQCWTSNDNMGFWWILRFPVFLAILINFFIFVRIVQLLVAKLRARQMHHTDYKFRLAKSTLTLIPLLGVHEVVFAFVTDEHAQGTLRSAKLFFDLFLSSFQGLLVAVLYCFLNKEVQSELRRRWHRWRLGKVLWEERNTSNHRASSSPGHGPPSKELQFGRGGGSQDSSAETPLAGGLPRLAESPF

Row | Binder | EC50 hGLP-1 R (human GLP-1 receptor) [nM] | EC50 hGIP R (human GIP receptor) [nM] | EC50 hGLUC R (human glucagon receptor) [nM]
1 | Y[Aib]HGTFTSDLSKQK([γGlu-Palmitoyl])EKRAA[Aib]EFIEWLKNTGPSSGAPPPS-NH2 (N-terminus assumed; SMILES CCCCCCCCCCCCCCCC(=O)N[C@@H](CCC(=O)NCCCC[C@H](NC(=O)[C@H](CCC(N)=O)NC(=O)[C@H](CCCCN)NC(=O)[C@H](CO)NC(=O)[C@H](CC(C)C)NC(=O)[C@H](CC(=O)O)NC(=O)[C@H](CO)NC(=O)[C@@H](NC(=O)[C@H](Cc1ccccc1)NC(=O)[C@@H](NC(=O)CNC(=O)[C@H](Cc1c[nH]cn1)NC(=O)C(C)(C)NC(=O)[C@@H](N)Cc1ccc(O)cc1)[C@@H](C)O)[C@@H](C)O)C(=O)N[C@@H](CCC(=O)O)C(=O)N[C@@H](CCCCN)C(=O)N[C@@H](CCCNC(=N)N)C(=O)N[C@@H](C)C(=O)N[C@@H](C)C(=O)NC(C)(C)C(=O)N[C@@H](CCC(=O)O)C(=O)N[C@@H](Cc1ccccc1)C(=O)N[C@H](C(=O)N[C@@H](CCC(=O)O)C(=O)N[C@@H](Cc1c[nH]c2ccccc12)C(=O)N[C@@H](CC(C)C)C(=O)N[C@@H](CCCCN)C(=O)N[C@@H](CC(N)=O)C(=O)N[C@H](C(=O)NCC(=O)N1CCC[C@H]1C(=O)N[C@@H](CO)C(=O)N[C@@H](CO)C(=O)NCC(=O)N[C@@H](C)C(=O)N1CCC[C@H]1C(=O)N1CCC[C@H]1C(=O)N1CCC[C@H]1C(=O)N[C@@H](CO)C(N)=O)[C@@H](C)O)[C@@H](C)CC)C(=O)O) [exendin-4 peptide analogue SEQ ID NO: 28] | 0.0583 | 0.0368 | 0.0048
2 | Y[Aib]EGTFTSDLSIQK([γGlu-Stearoyl])ESKAA[Aib]EFIEWLKAGGPSSGAPPPS-NH2 (N-terminus assumed; SMILES CCCCCCCCCCCCCCCCCC(=O)N[C@@H](CCC(=O)NCCCC[C@H](NC(=O)[C@H](CCC(N)=O)NC(=O)[C@@H](NC(=O)[C@H](CO)NC(=O)[C@H](CC(C)C)NC(=O)[C@H](CC(=O)O)NC(=O)[C@H](CO)NC(=O)[C@@H](NC(=O)[C@H](Cc1ccccc1)NC(=O)[C@@H](NC(=O)CNC(=O)[C@H](CCC(=O)O)NC(=O)C(C)(C)NC(=O)[C@@H](N)Cc1ccc(O)cc1)[C@@H](C)O)[C@@H](C)O)[C@@H](C)CC)C(=O)N[C@@H](CCC(=O)O)C(=O)N[C@@H](CO)C(=O)N[C@@H](CCCCN)C(=O)N[C@@H](C)C(=O)N[C@@H](C)C(=O)NC(C)(C)C(=O)N[C@@H](CCC(=O)O)C(=O)N[C@@H](Cc1ccccc1)C(=O)N[C@H](C(=O)N[C@@H](CCC(=O)O)C(=O)N[C@@H](Cc1c[nH]c2ccccc12)C(=O)N[C@@H](CC(C)C)C(=O)N[C@@H](CCCCN)C(=O)N[C@@H](C)C(=O)NCC(=O)NCC(=O)N1CCC[C@H]1C(=O)N[C@@H](CO)C(=O)N[C@@H](CO)C(=O)NCC(=O)N[C@@H](C)C(=O)N1CCC[C@H]1C(=O)N1CCC[C@H]1C(=O)N1CCC[C@H]1C(=O)N[C@@H](CO)C(N)=O)[C@@H](C)CC)C(=O)O) [exendin-4 peptide analogue SEQ ID NO: 29] | 0.0072 | 0.013 | 15
3 | Y[Aib]QGTFTSDLSIQK([γGlu-Palmitoyl])DSRAAQDFIEWLKRGGPSSGAPPPS-NH2 (N-terminus assumed; SMILES CCCCCCCCCCCCCCCC(=O)N[C@@H](CCC(=O)NCCCC[C@H](NC(=O)[C@H](CCC(N)=O)NC(=O)[C@@H](NC(=O)[C@H](CO)NC(=O)[C@H](CC(C)C)NC(=O)[C@H](CC(=O)O)NC(=O)[C@H](CO)NC(=O)[C@@H](NC(=O)[C@H](Cc1ccccc1)NC(=O)[C@@H](NC(=O)CNC(=O)[C@H](CCC(N)=O)NC(=O)C(C)(C)NC(=O)[C@@H](N)Cc1ccc(O)cc1)[C@@H](C)O)[C@@H](C)O)[C@@H](C)CC)C(=O)N[C@@H](CC(=O)O)C(=O)N[C@@H](CO)C(=O)N[C@@H](CCCNC(=N)N)C(=O)N[C@@H](C)C(=O)N[C@@H](C)C(=O)N[C@@H](CCC(N)=O)C(=O)N[C@@H](CC(=O)O)C(=O)N[C@@H](Cc1ccccc1)C(=O)N[C@H](C(=O)N[C@@H](CCC(=O)O)C(=O)N[C@@H](Cc1c[nH]c2ccccc12)C(=O)N[C@@H](CC(C)C)C(=O)N[C@@H](CCCCN)C(=O)N[C@@H](CCCNC(=N)N)C(=O)NCC(=O)NCC(=O)N1CCC[C@H]1C(=O)N[C@@H](CO)C(=O)N[C@@H](CO)C(=O)NCC(=O)N[C@@H](C)C(=O)N1CCC[C@H]1C(=O)N1CCC[C@H]1C(=O)N1CCC[C@H]1C(=O)N[C@@H](CO)C(N)=O)[C@@H](C)CC)C(=O)O) [exendin-4 peptide analogue SEQ ID NO: 34] | 0.0074 | 0.0513 | 0.222
4 | Y[Aib]EGTFTSDLSKQK([γGlu-Palmitoyl])DKRAAQDFIEWLKNGGPSSGAPPPS-NH2 (N-terminus assumed; SMILES CCCCCCCCCCCCCCCC(=O)N[C@@H](CCC(=O)NCCCC[C@H](NC(=O)[C@H](CCC(N)=O)NC(=O)[C@H](CCCCN)NC(=O)[C@H](CO)NC(=O)[C@H](CC(C)C)NC(=O)[C@H](CC(=O)O)NC(=O)[C@H](CO)NC(=O)[C@@H](NC(=O)[C@H](Cc1ccccc1)NC(=O)[C@@H](NC(=O)CNC(=O)[C@H](CCC(=O)O)NC(=O)C(C)(C)NC(=O)[C@@H](N)Cc1ccc(O)cc1)[C@@H](C)O)[C@@H](C)O)C(=O)N[C@@H](CC(=O)O)C(=O)N[C@@H](CCCCN)C(=O)N[C@@H](CCCNC(=N)N)C(=O)N[C@@H](C)C(=O)N[C@@H](C)C(=O)N[C@@H](CCC(N)=O)C(=O)N[C@@H](CC(=O)O)C(=O)N[C@@H](Cc1ccccc1)C(=O)N[C@H](C(=O)N[C@@H](CCC(=O)O)C(=O)N[C@@H](Cc1c[nH]c2ccccc12)C(=O)N[C@@H](CC(C)C)C(=O)N[C@@H](CCCCN)C(=O)N[C@@H](CC(N)=O)C(=O)NCC(=O)NCC(=O)N1CCC[C@H]1C(=O)N[C@@H](CO)C(=O)N[C@@H](CO)C(=O)NCC(=O)N[C@@H](C)C(=O)N1CCC[C@H]1C(=O)N1CCC[C@H]1C(=O)N1CCC[C@H]1C(=O)N[C@@H](CO)C(N)=O)[C@@H](C)CC)C(=O)O) [exendin-4 peptide analogue SEQ ID NO: 30] | 0.005 | 0.0163 | 1.45
5 | Y[Aib]QGTFTSDLSIQK([γGlu-Stearoyl])DEQRAKEFIEWLKAGGPSSGAPPPS-NH2 (N-terminus assumed; SMILES CCCCCCCCCCCCCCCCCC(=O)N[C@@H](CCC(=O)NCCCC[C@H](NC(=O)[C@H](CCC(N)=O)NC(=O)[C@@H](NC(=O)[C@H](CO)NC(=O)[C@H](CC(C)C)NC(=O)[C@H](CC(=O)O)NC(=O)[C@H](CO)NC(=O)[C@@H](NC(=O)[C@H](Cc1ccccc1)NC(=O)[C@@H](NC(=O)CNC(=O)[C@H](CCC(N)=O)NC(=O)C(C)(C)NC(=O)[C@@H](N)Cc1ccc(O)cc1)[C@@H](C)O)[C@@H](C)O)[C@@H](C)CC)C(=O)N[C@@H](CC(=O)O)C(=O)N[C@@H](CCC(=O)O)C(=O)N[C@@H](CCC(N)=O)C(=O)N[C@@H](CCCNC(=N)N)C(=O)N[C@@H](C)C(=O)N[C@@H](CCCCN)C(=O)N[C@@H](CCC(=O)O)C(=O)N[C@@H](Cc1ccccc1)C(=O)N[C@H](C(=O)N[C@@H](CCC(=O)O)C(=O)N[C@@H](Cc1c[nH]c2ccccc12)C(=O)N[C@@H](CC(C)C)C(=O)N[C@@H](CCCCN)C(=O)N[C@@H](C)C(=O)NCC(=O)NCC(=O)N1CCC[C@H]1C(=O)N[C@@H](CO)C(=O)N[C@@H](CO)C(=O)NCC(=O)N[C@@H](C)C(=O)N1CCC[C@H]1C(=O)N1CCC[C@H]1C(=O)N1CCC[C@H]1C(=O)N[C@@H](CO)C(N)=O)[C@@H](C)CC)C(=O)O) [exendin-4 peptide analogue SEQ ID NO: 31] | 0.0148 | 0.0131 | 0.0041
6 | Y[Aib]HGTFTSDLSIQK([γGlu-Stearoyl])EKRAAFEFIEWLKNTGPSSGAPPPS-NH2 (N-terminus assumed; SMILES CCCCCCCCCCCCCCCCCC(=O)N[C@@H](CCC(=O)NCCCC[C@H](NC(=O)[C@H](CCC(N)=O)NC(=O)[C@@H](NC(=O)[C@H](CO)NC(=O)[C@H](CC(C)C)NC(=O)[C@H](CC(=O)O)NC(=O)[C@H](CO)NC(=O)[C@@H](NC(=O)[C@H](Cc1ccccc1)NC(=O)[C@@H](NC(=O)CNC(=O)[C@H](Cc1c[nH]cn1)NC(=O)C(C)(C)NC(=O)[C@@H](N)Cc1ccc(O)cc1)[C@@H](C)O)[C@@H](C)O)[C@@H](C)CC)C(=O)N[C@@H](CCC(=O)O)C(=O)N[C@@H](CCCCN)C(=O)N[C@@H](CCCNC(=N)N)C(=O)N[C@@H](C)C(=O)N[C@@H](C)C(=O)N[C@@H](Cc1ccccc1)C(=O)N[C@@H](CCC(=O)O)C(=O)N[C@@H](Cc1ccccc1)C(=O)N[C@H](C(=O)N[C@@H](CCC(=O)O)C(=O)N[C@@H](Cc1c[nH]c2ccccc12)C(=O)N[C@@H](CC(C)C)C(=O)N[C@@H](CCCCN)C(=O)N[C@@H](CC(N)=O)C(=O)N[C@H](C(=O)NCC(=O)N1CCC[C@H]1C(=O)N[C@@H](CO)C(=O)N[C@@H](CO)C(=O)NCC(=O)N[C@@H](C)C(=O)N1CCC[C@H]1C(=O)N1CCC[C@H]1C(=O)N1CCC[C@H]1C(=O)N[C@@H](CO)C(N)=O)[C@@H](C)O)[C@@H](C)CC)C(=O)O) [exendin-4 peptide analogue SEQ ID NO: 32] | 0.0417 | 0.0335 | 0.0192
